In paper doi:10.1101/2025.03.16.643542 (bioRxiv, 2025) one finds EC50 data, which are given here for two molecules.

This test concerns the target epidermal growth factor receptor (EGFR) on EGFR^hi A431 cells (Homo sapiens, A431 cells, UniProt P00533). The test is described as follows: flow cytometry on cells. (Flow cytometry measures light scatter and fluorescence of single cells or particles in a stream.)

B1: nanobody 5B12 (VHH)
VHH: QVQLQESGGGLVQTGDSLRLSCAASGGTLTSYNMGWFRQAPGKDREFVAGISWSGGTGTYYADSVKGRFTISTDNAKNTVYLQMDSLKPDDTAVYYCAVRRRAYSVYTRPGLYDYWGQGTQVTVSS
What is called EC50 is the concentration that produces a half-maximal response. Consider B1, for which the half-maximal effective concentration (EC50) was found to be 0.0047 µM.

B2: nanobody 5B1 (VHH)
VHH: QVQLQESGGGLVQAGDSLRLSCAASGRTFSTYTMGWFRQAPGKEREFVAGIGYSDDNTYYTDSVKGRFTVSRGSAKNTVYLQMNSLKPEDTAVYYCAARVGDVVFTIADNYAYWGQGTQVTVSS
Molecule B2 gave an EC50 of 0.0769 µM.
